Assay results from the supplement of paper PMC10567573.

B1: POMT2 (parent)
chain: VLRSRIRFIHLVTGCVLGSSGKVL
B2: APBB1IP (parent)
chain: ADPVLDLPLPPPPPEPLSQVSMWD
B3: SPATS1 (parent)
chain: GRKKYDIDPRNGIPKLTPGDNPYM

Variants of: B1
Test: protein stability index of a GFP-peptide fusion (GPS, HEK-293T) (PSI 1-6); higher = more stable
Conditions: c terminus: a fixed tail appended
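Further: lentivirally expressed fusions sorted by FACS into six bins by GFP to DsRed ratio, PSI derived from sequencing read proportions per bin multiplied by bin number.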

Protein stability index, by site and new letter:
L11: Q 2.87 | A 2.33 | T 3.02 | M 1.68 | P 2.4 | S 3.27 | K 2.13 | D 2.48
F8: N 1.9 | K 2.4 | W 2.35 | R 2.11 | D 1.88
I9: K 2.98 | L 2.5 | V 1.5 | D 1.63
V16: D 2.73 | C 2.73 | N 3.21 | L 3.58 | W 2.43 | G 2.39 | R 4.75
L17: H 2.75 | I 2.28 | P 1.74
K22: F 2.53 | P 1.99 | L 2.69 | C 2.73 | S 2.57
S4: Q 3.06 | K 3.75 | L 3.33 | N 4.14 | T 3.04
I6: S 1.83 | V 3.12 | C 4.38 | T 1.3 | E 2.45
V12: Q 1.05 | T 4.51 | I 2.81 | P 2.25 | W 1.94 | R 2.65
R7: K 3.58 | H 3.62 | V 2.05
V1: S 3.21 | D 2.88 | E 2.61 | G 1.39 | I 2.76 | T 3
G21: E 3.64 | Q 3.44 | C 3.88 | W 2.96
G18: V 1.38 | R 2.35 | L 2.69 | M 2.78 | C 2.32 | N 4.13
L2: R 3.38 | H 2.81 | D 3.93 | Q 3.47 | A 3.86
V23: F 1.77 | M 2.32 | G 3.42
S20: Q 3.58 | M 1.28 | I 1.78 | A 3.46 | F 1.43 | T 3.42
R5: D 2.67 | E 2.83 | P 3.07 | V 2.4
R3: S 3.27 | L 2.04 | Y 2.82 | A 1.24 | N 2.43 | E 2.31 | G 3.29
L24: S 2.75 | E 3.25 | R 2.92
H10: P 3.05 | N 2.3 | C 2.67 | T 2.92 | G 3.29 | R 2.5
G14: A 4.85 | P 2.97 | T 2.33 | I 3.23
T13: D 2.35 | G 1.51 | K 2.22 | Y 3.54
S19: T 3.6 | L 1.78 | P 3.18
C15: G 3.07 | R 2.13

Variants of: B2
Test: as above
Conditions: c terminus: a fixed tail appended

Protein stability index, by site and new letter:
P11: E 4.69 | K 4.69 | V 4.43
P13: E 4.96 | K 4.6 | R 4.37 | V 3.84 | W 3.8

Variants of: B3
Test: as above
Conditions: c terminus: a fixed tail appended

Protein stability index: each site, then its substitutions
L16: I 3.47 | Q 4.08 | W 2.67 | S 3.67 | H 3.75 | K 3.53 | V 4 | D 4.11 | Y 3.22
K3: W 2.91 | R 3.27 | E 3.79 | S 3.25 | D 4.24 | Y 2.77 | P 3.29
P14: H 3.51 | M 3.05 | Y 3.03 | D 3.66 | W 2.9 | A 3.52 | E 4.16 | K 3.44 | V 3.36 | S 3.3
I13: C 3.82 | R 3.58 | H 4.04 | V 3.82 | F 3.99 | L 3.64 | Y 2.81 | T 3.72 | Q 3.68 | K 3.9 | M 3.36
K15: V 3.29 | S 3.69 | W 1.98 | N 3.49 | T 3.78 | A 3.64 | C 3.04 | G 2.81 | E 4.33 | Y 2.96
N21: Y 3.06 | L 2.88 | A 3.84 | W 2.63 | I 3.5 | Q 3.67 | T 3.46
P22: R 4.22 | T 4.01 | L 3.31 | Y 3.44 | M 3.37
T17: L 3.31 | N 3.48 | I 3.19 | W 2.47 | S 4.08 | D 3.32 | Y 2.89 | F 2.72 | G 3.48 | C 3.13 | R 2.95
P18: F 1.9 | S 3.55 | E 3.92 | H 3.42 | M 3.18 | D 3.82
G19: A 3.32 | W 2.3 | L 3.44 | H 3.34 | F 2.63
R10: C 3.77 | G 3.68 | P 3.29 | T 3.81 | H 3.4 | Y 3.1 | E 4.19 | I 3.57 | N 3.23 | S 3.65 | W 2.56 | K 3.92 | M 3.03
R2: V 3.73 | H 3.85 | A 3.51 | M 3.37 | G 3.39 | T 3.15 | D 4.13
G1: R 3.93 | K 3.25 | T 3.4 | L 2.96 | H 3.25 | Q 3.52 | A 3.48 | M 3.12 | F 2.88 | N 3.54 | D 3.85
Y5: R 4.07 | A 4.14 | N 3.93 | K 4.23 | S 4.36 | H 3.88 | G 4.44 | C 4.08 | F 3.51 | Q 4.27 | P 3.38 | W 2.92
D6: I 2.57 | H 3.35 | T 3.16 | A 3.26 | Y 3.12 | L 2.84 | P 3.49 | S 3.4 | R 3.11 | M 3.01 | F 2.51 | Q 2.94
N11: S 3.6 | F 3.34 | V 3.28 | E 3.82 | D 3.87
D20: F 2.33 | G 3.3 | H 3.06 | M 2.46 | L 2.71 | R 3.74 | C 3.47 | P 3.2 | V 3.37
K4: W 3.03 | G 3.71 | M 3.5 | E 4.1 | R 3.19
I7: M 2.98 | D 4.21 | G 4.08 | L 3.39 | V 3.83 | N 3.86 | P 3.71 | Q 4.17 | F 3.11 | S 4.25 | Y 3.45
P9: I 3.69 | L 3.24 | Y 2.99 | D 3.99 | C 3.72 | H 3.79 | T 3.62 | S 3.85 | G 3.52 | A 3.44
Y23: Q 4.56 | R 4.34 | H 3.93 | V 4.18 | A 4.3 | W 3.05 | T 4.6 | N 4.43 | C 3.26
D8: W 2.68 | Q 3.83 | H 2.82 | I 3.08 | N 3.12 | K 3.14 | Y 2.68 | T 3.56 | F 2.84 | A 3.02
M24: I 3.46 | T 4.04 | A 4.21 | L 3.62 | W 3.53 | R 3.59 | V 4.22 | H 3.76 | S 4.21 | D 4.4 | C 3.73
G12: A 3.66 | Q 3.72 | N 3.21 | E 3.97 | H 3.32 | C 2.48
